# B1: 32H2G1A1 (antibody, V domains shown)
# VH: EVMLVESGGDLVKPGGSLKLSCAASGFSFRTYAMSWVRQSPEKSLEWVATISSGSSYIYYPDSVKGRFTVFRDNAKNTLYLQMSSLRSEDSAIYYCTCYRMETFEYWGQGTTLTVSS
# VL: DVVMTQTPLSLPVSLGDEASISCRSSQSLVYNNGNTYLHWYLQKPGQSPKLLIYKVSNRFSGVPDRFSGSGSGTDFTLKISRVEAEDLGVYFCSQSTHVPLTFGAGTKLELK
# B2: 32H2-ch (antibody, V domains shown)
# VH: B1 VH
# VL: DVVMTQTPLSLPVSLGDEASISCRSSQSLVYNNGNTYLHWYLQKPGQSPKLLIYKVSNRFSGVPDRFSGSGSGTDFTLKISRVEAEDLGVYFCSQSTHVPLTFGAGTKLELKR
# B3: 32H2-SP4VHL-L (bispecific antibody, human IgG1, kappa)
# heavy: not shown
# light: DVVMTQSPLSLPVTLGQPASISCRSSQSLVYNNGNTYLHWYQQRPGQSPRLLIYKVSNRFSGVPDRFSGSGSGTDFTLKISRVEAEDVGVYFCSQSTHVPLTFGQGTKVEIKRTVAAPSVFIFPPSDEQLKSGTASVVCLLNNFYPREAKVQWKVDNALQSGNSQESVTEQDSKDSTYSLSSTLTLSKADYEKHKVYACEVTHQGLSSPVTKSFNRGECGGGGSGGGGSGGGGSEVQLVESGGGLVQPGGSLRLSCAASGFTFNTYAMNWVRQAPGKGLEWVARIRSKYNNYATYYADSVKDRFTISRDDSKNTLYLQMNSLRAEDTAVYYCVRHGNFGNSYVSWFAYWGQGTLVTVSSGGGGSGGGGSGGGGSGGGGSQAVVTQEPSLTVSPGGTVTLTCRSSTGAVTTSNYANWVQQKPGQAPRGLIGGTNKRAPGVPARFSGSLLGGKAALTLSGAQPEDEAEYYCALWYSNLWVFGQGTKVEIK
# notes: also called 结构19
# B4: 43D11B1D2 (antibody, V domains shown)
# VH: DVKLVESGGVLVKLGGSLKLSCAASGFTFSGYFMSWVRQTPEKRLELVAAINSDGGSTYYPDTVKGRFTISRDNAKNTLYLQMSSLKSEDTALYYCARLARYLYAMDYWGQGTSVTVSS
# VL: QIVLTQSPAIMSASPGEKVTMTCSASSSVSYMYWYQQKPGSSPRLLIYDTSNLASGVPVRFSGSGSGTSYSLTISRMEAEDAATYYCQQWTSSSWTFGGGTKLEIK
# B5: 43D11-ch (antibody, V domains shown)
# VH: B4 VH
# VL: QIVLTQSPAIMSASPGEKVTMTCSASSSVSYMYWYQQKPGSSPRLLIYDTSNLASGVPVRFSGSGSGTSYSLTISRMEAEDAATYYCQQWTSSSWTFGGGTKLEIKR
# B6: 32H2-Hu (antibody, V domains shown)
# VH: EVQLVESGGGLVKPGGSLRLSCAASGFSFRTYAMSWVRQAPGKSLEWVATISSGSSYIYYPDSVKGRFTVSRDNAKNSLYLQMNSLRAEDTAVYYCTCYRMETFEYWGQGTLVTVSS
# VL: DVVMTQSPLSLPVTLGQPASISCRSSQSLVYNNGNTYLHWYQQRPGQSPRLLIYKVSNRFSGVPDRFSGSGSGTDFTLKISRVEAEDVGVYFCSQSTHVPLTFGQGTKVEIKR
# B7: SP4VHL-32H2 (bispecific antibody, human IgG1, kappa)
# heavy: not shown
# light: DVVMTQSPLSLPVTLGQPASISCRSSQSLVYNNGNTYLHWYQQRPGQSPRLLIYKVSNRFSGVPDRFSGSGSGTDFTLKISRVEAEDVGVYFCSQSTHVPLTFGQGTKVEIKRTVAAPSVFIFPPSDEQLKSGTASVVCLLNNFYPREAKVQWKVDNALQSGNSQESVTEQDSKDSTYSLSSTLTLSKADYEKHKVYACEVTHQGLSSPVTKSFNRGEC
# notes: The anti-CD3 scFv (VH-L-VL of humanized SP34) sits at the N-terminus of the heavy chain; also called 结构2
# B8: 32H2Fab-SP4VHL (bispecific antibody)
# heavy: EVQLVESGGGLVKPGGSLRLSCAASGFSFRTYAMSWVRQAPGKSLEWVATISSGSSYIYYPDSVKGRFTVSRDNAKNSLYLQMNSLRAEDTAVYYCTCYRMETFEYWGQGTLVTVSSASTKGPSVFPLAPSSKSTSGGTAALGCLVKDYFPEPVTVSWNSGALTSGVHTFPAVLQSSGLYSLSSVVTVPSSSLGTQTYICNVNHKPSNTKVDKKVEPKSCGGGGSGGGGSGGGGSEVQLVESGGGLVQPGGSLRLSCAASGFTFNTYAMNWVRQAPGKGLEWVARIRSKYNNYATYYADSVKDRFTISRDDSKNTLYLQMNSLRAEDTAVYYCVRHGNFGNSYVSWFAYWGQGTLVTVSSGGGGSGGGGSGGGGSGGGGSQAVVTQEPSLTVSPGGTVTLTCRSSTGAVTTSNYANWVQQKPGQAPRGLIGGTNKRAPGVPARFSGSLLGGKAALTLSGAQPEDEAEYYCALWYSNLWVFGQGTKVEIK
# light: B7 light
# notes: also called 32H2Fab-SPVHL; 结构10
# B9: 32H2CH1-SP4VHL (bispecific antibody)
# heavy: not shown
# light: B7 light
# notes: also called 结构7
# B10: 10D7A7 (antibody, V domains shown)
# VH: QVQLKQSGPGLVQPSQSLSITCTVSGFSLTNYGVHWVRQSPGKGLEWLGVIWSGGRKDYNAAFISRLNITKDNSKSQVFFTMNSLHSDDTAIYYCARHGTYPYWYFALWGAGTSVTISS
# VL: DIQMTQTTSSLSASLGDRVTISCRASQDISNYLNWYQQKPDGTFKLLVYYTSRLQSGVPSRFSGSGSGTLYSLTISTLEQEDVATYFCQQGKTLPFSFGGGTRLEIK
# B11: 10D7-ch (antibody, V domains shown)
# VH: B10 VH
# VL: DIQMTQTTSSLSASLGDRVTISCRASQDISNYLNWYQQKPDGTFKLLVYYTSRLQSGVPSRFSGSGSGTLYSLTISTLEQEDVATYFCQQGKTLPFSFGGGTRLEIKR
# Tests used:
# [1] = target: T1, GUCY2C-Fc蛋白 (human GUCY2C extracellular region fused to human IgG1 Fc) (human, UniProt P25092 24-430); experiment: indirect ELISA, GUCY2C-Fc coated at 1 ug/mL, anti-mouse HRP
# T1 construct: extracellular domain; Made in HEK-293F with an unspecified N-terminal signal peptide; also called 人GUCY2C-Fc蛋白; not shown: human IgG1 Fc at the C-terminus in place of the 6xHis tag
# T1 sequence (P25092 24-430 limits assumed): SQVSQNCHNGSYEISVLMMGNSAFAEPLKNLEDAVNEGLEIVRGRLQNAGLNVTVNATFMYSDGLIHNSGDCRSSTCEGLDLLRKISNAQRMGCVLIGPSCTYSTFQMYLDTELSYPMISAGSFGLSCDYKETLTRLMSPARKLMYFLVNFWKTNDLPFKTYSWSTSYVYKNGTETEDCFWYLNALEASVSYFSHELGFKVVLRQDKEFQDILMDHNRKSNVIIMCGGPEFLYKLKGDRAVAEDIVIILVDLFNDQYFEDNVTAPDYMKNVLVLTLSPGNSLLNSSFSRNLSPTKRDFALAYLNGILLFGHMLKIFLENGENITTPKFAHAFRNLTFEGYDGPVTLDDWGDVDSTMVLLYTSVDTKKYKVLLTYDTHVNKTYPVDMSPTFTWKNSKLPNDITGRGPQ
# [2] = target: T2, GUCY2C on tumour cells (CW2, CW2-GCC#1, T84) (human, UniProt P25092 24-1073); experiment: flow cytometry on CW2 human colon cancer cells, anti-mouse PE
# T2 construct: whole, on cells; Only CW2-GCC#1 is expressly said to express GUCY2C; also called 鸟苷酸环化酶2C; 人结肠癌细胞CW2
# T2 sequence (P25092 24-1073): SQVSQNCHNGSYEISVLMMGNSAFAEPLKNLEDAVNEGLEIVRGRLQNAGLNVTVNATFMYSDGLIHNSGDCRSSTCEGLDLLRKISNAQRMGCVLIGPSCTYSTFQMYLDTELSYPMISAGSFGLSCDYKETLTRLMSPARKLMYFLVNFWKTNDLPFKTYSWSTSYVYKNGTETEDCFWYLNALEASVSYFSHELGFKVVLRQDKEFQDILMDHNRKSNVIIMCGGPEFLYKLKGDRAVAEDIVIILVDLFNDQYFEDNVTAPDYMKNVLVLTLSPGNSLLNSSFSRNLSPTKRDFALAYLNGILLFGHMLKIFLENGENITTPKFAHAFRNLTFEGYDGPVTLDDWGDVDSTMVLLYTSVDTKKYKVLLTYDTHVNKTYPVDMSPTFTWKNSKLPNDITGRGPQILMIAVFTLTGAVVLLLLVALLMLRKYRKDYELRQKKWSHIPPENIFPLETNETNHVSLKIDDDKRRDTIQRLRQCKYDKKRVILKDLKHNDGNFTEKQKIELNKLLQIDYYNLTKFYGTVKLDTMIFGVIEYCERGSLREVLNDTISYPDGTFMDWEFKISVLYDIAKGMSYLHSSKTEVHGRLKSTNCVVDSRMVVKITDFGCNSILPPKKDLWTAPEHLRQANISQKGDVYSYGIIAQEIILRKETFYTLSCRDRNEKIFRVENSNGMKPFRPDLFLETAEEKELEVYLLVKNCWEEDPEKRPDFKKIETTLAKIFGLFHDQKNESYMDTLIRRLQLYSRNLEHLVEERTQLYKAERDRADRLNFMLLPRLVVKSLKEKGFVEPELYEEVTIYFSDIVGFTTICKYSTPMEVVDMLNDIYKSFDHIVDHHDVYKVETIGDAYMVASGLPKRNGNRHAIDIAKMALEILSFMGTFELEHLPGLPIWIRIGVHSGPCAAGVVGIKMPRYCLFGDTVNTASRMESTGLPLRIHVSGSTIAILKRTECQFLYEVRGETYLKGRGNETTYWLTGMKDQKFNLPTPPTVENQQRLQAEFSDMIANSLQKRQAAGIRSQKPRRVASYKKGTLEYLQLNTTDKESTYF
# [3] = target: T3, GUCY2C-His蛋白 (human GUCY2C extracellular region with C-terminal 6xHis) (human, UniProt P25092 24-430); experiment: ELISA, GUCY2C-His coated at 0.1 ug/mL, anti-mouse HRP (Table 4)
# T3 construct: extracellular domain; Made in HEK-293F with an unspecified N-terminal signal peptide; also called 人GUCY2C-His蛋白
# T3 sequence (P25092 other isoform, or with tags, fused parts or gaps): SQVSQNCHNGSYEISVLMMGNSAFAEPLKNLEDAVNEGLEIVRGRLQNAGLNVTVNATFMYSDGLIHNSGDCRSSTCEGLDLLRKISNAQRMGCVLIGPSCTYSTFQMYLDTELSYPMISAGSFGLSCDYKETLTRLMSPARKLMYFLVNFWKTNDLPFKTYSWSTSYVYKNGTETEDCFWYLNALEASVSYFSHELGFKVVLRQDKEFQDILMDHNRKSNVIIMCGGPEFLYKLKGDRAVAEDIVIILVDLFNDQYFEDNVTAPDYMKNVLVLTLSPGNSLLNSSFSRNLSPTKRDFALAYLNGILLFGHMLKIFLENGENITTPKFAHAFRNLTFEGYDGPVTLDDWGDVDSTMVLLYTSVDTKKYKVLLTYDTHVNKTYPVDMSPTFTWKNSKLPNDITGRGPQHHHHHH
# [4] = target: T3, GUCY2C-His蛋白 (human GUCY2C …); experiment: ELISA, GUCY2C-His coated, anti-human IgG Fc HRP
# [5] = target: T2, GUCY2C on tumour cells (CW2, CW2-GCC#1, …); experiment: cell-based or functional assay
# [6] = target: T3, GUCY2C-His蛋白 (human GUCY2C …); experiment: ELISA, GUCY2C-His coated, anti-human IgG Fab HRP (Table 9)
# [7] = target: T1, GUCY2C-Fc蛋白 (human GUCY2C extracellular …); experiment: ELISA, GUCY2C-Fc coated, anti-human IgG Fab HRP (Table 11)
# [8] = target: T1, GUCY2C-Fc蛋白 (human GUCY2C extracellular …); experiment: ELISA, GUCY2C-Fc coated, anti-human IgG Fab HRP (Table 12)
# [9] = target: T3, GUCY2C-His蛋白 (human GUCY2C …); experiment: ELISA, GUCY2C-His coated, anti-human IgG Fab HRP (Table 10)
# CD3ε-ECD-his [10] = target: T4, CD3ε-ECD-his (UniProt P07766 23-126); experiment: ELISA, CD3ε-ECD-his coated at 1 ug/mL, anti-human IgG Fab HRP (Table 14)
# T4 construct: extracellular domain; also called CD3ε蛋白
# T4 sequence (P07766 other isoform, or with tags, fused parts or gaps): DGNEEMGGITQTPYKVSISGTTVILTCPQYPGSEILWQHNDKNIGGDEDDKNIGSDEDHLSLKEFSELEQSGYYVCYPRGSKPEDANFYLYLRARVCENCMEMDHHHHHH
# [11] = target: T3, GUCY2C-His蛋白 (human GUCY2C …); experiment: ELISA, GUCY2C-His coated at 0.1 ug/mL, anti-mouse HRP (Table 3)
# [12] = target: T3, GUCY2C-His蛋白 (human GUCY2C …); experiment: ELISA, GUCY2C-His coated, anti-human IgG Fc HRP; remark: listed apart in the source
# [13] = target: T1, GUCY2C-Fc蛋白 (human GUCY2C extracellular …); experiment: ELISA, GUCY2C-Fc coated, anti-human IgG Fab HRP
# [14] = target: T2, GUCY2C on tumour cells (CW2, CW2-GCC#1, …); experiment: flow cytometry on CW2-GCC#1 cells (GUCY2C-overexpressing CW2)
# [15] = target: T1, GUCY2C-Fc蛋白 (human GUCY2C extracellular …); experiment: ELISA, GUCY2C-Fc coated, anti-human IgG Fab HRP (Table 18)
# [16] = target: T3, GUCY2C-His蛋白 (human GUCY2C …); experiment: ELISA, GUCY2C-His coated, anti-human IgG Fab HRP (Table 17)
# [17] = target: T2, GUCY2C on tumour cells (CW2, CW2-GCC#1, …); experiment: cell-based or functional assay; remark: listed apart in the source
# CD3ε-ECD-his [18] = target: T4, CD3ε-ECD-his; experiment: ELISA, CD3ε-ECD-his coated; reference SP34
# CD3ε-ECD-his [19] = target: T4, CD3ε-ECD-his; experiment: ELISA, CD3ε-ECD-his coated at 1 ug/mL (Table 19)
binder,measurement,setting,value
B1,EC50,[1],0.00709 µg/mL
same,EC50,[2],9.6 µg/mL
same,EC50,[3],0.26 nM
B2,EC50,[4],0.141 nM
B3,"IC50 of T-cell-mediated killing of CW2 cells (CTG, E:T 5:1, 96 h)",[5],0.08 nM
same,EC50,[6],0.49 nM
same,EC50,[7],0.38 nM
same,EC50,[8],0.43 nM
same,EC50,[9],0.49 nM
same,EC50,CD3ε-ECD-his [10],1.09 nM
B4,EC50,[1],0.018 µg/mL
same,EC50,[2],0.365 µg/mL
same,EC50,[11],0.99 nM
B5,EC50,[4],5.19 nM
B6,EC50,[12],0.468 nM
same,EC50,[13],0.452 nM
same,EC50,[14],96.3 nM
same,EC50,[6],0.24 nM
same,EC50,[7],0.23 nM
same,EC50,[15],0.759 nM
same,EC50,[16],0.244 nM
B7,"IC50 of T-cell-mediated killing of CW2 cells (CTG, E:T 5:1, 96 h)",[5],0.46 nM
same,IC50 of T-cell-mediated killing of T84 cells,[17],0.004 nM
same,fold weaker affinity than SP34,CD3ε-ECD-his [18],~5 fold
same,EC50,CD3ε-ECD-his [19],0.792 nM
same,EC50,[6],1.86 nM
same,EC50,[7],1 nM
same,EC50,[8],1.19 nM
same,EC50,[15],2.83 nM
same,EC50,[9],2.09 nM
same,EC50,[16],1.84 nM
same,EC50,CD3ε-ECD-his [10],0.59 nM
B8,"IC50 of T-cell-mediated killing of CW2 cells (CTG, E:T 5:1, 96 h)",[5],51 nM
same,IC50 of T-cell-mediated killing of T84 cells,[17],1.25 nM
same,EC50,[6],35.5 nM
same,EC50,[7],5.08 nM
same,EC50,[8],1.04 nM
same,EC50,[9],30.1 nM
same,EC50,CD3ε-ECD-his [10],6.12 nM
B9,"IC50 of T-cell-mediated killing of CW2 cells (CTG, E:T 5:1, 96 h)",[5],0.05 nM
same,fold weaker affinity than SP34,CD3ε-ECD-his [18],~2 fold
same,EC50,CD3ε-ECD-his [19],0.309 nM
same,EC50,[6],0.29 nM
same,EC50,[7],0.24 nM
same,EC50,[8],0.33 nM
same,EC50,[15],0.521 nM
same,EC50,[9],0.23 nM
same,EC50,[16],0.188 nM
same,EC50,CD3ε-ECD-his [10],0.37 nM
B10,EC50,[1],0.0307 µg/mL
same,EC50,[2],0.137 µg/mL
same,EC50,[3],0.8 nM
B11,EC50,[4],0.113 nM

# From patent publication CN116284426A (SUNSHINE GUOJIAN PHARMACEUTICAL SHANGHAI CO LTD, dated 2023)
